Test results published in paper PMC12416549 (2024).
Changes are numbered by the printed parent chain. Names and notes keep the numbering of the source.

T1: TNFR1 (Homo sapiens, UniProt P19438)
T1 chain: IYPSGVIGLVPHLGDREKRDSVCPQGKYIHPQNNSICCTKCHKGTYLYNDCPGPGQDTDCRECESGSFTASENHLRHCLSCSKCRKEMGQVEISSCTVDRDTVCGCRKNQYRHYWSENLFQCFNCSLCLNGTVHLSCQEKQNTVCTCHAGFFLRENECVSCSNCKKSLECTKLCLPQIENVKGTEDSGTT

B1: A90V (designed binder)
chain: SMEEEVEKAAKEYEKKKKEAIEKHLEKLKAKDKEAAERFLKELEEAAKEYAKDEAKTMSEEEAKRRAKKYKEKVLLSELSEEEQKEIKEVEEKLVRTILKYVEEAAK
B2: K71S (designed binder)
chain: B1 chain with K71S, V90A
B3: K100L (designed binder)
chain: B1 chain with V90A, K100L
B4: A46S (designed binder)
chain: B1 chain with A46S, V90A
B5: L43I (designed binder)
chain: B1 chain with L43I, V90A
B6: K33E (designed binder)
chain: B1 chain with K33E, V90A
B7: E14V (designed binder)
chain: B1 chain with E14V, V90A
B8: L43W (designed binder)
chain: B1 chain with L43W, V90A
B9: Y50N (designed binder)
chain: B1 chain with Y50N, V90A
B10: F39S (designed binder)
chain: B1 chain with F39S, V90A
B11: D32F (designed binder)
chain: B1 chain with D32F, V90A
B12: K11I (designed binder)
chain: B1 chain with K11I, V90A
B13: S1M (designed binder)
chain: B1 chain with S1M, V90A
B14: K15R (designed binder)
chain: B1 chain with K15R, V90A
B15: A67G (designed binder)
chain: B1 chain with A67G, V90A
B16: E3Q (designed binder)
chain: B1 chain with E3Q, V90A
B17: D53L (designed binder)
chain: B1 chain with D53L, V90A
B18: K71G (designed binder)
chain: B1 chain with K71G, V90A
B19: V102P (designed binder)
chain: B1 chain with V90A, V102P
B20: L75M (designed binder)
chain: B1 chain with L75M, V90A
B21: I87Q (designed binder)
chain: B1 chain with I87Q, V90A
B22: S1D (designed binder)
chain: B1 chain with S1D, V90A
B23: E89W (designed binder)
chain: B1 chain with E89W, V90A
B24: F39Q (designed binder)
chain: B1 chain with F39Q, V90A
B25: L79N (designed binder)
chain: B1 chain with L79N, V90A
B26: A105R (designed binder)
chain: B1 chain with V90A, A105R
B27: K17I (designed binder)
chain: B1 chain with K17I, V90A
B28: A63L (designed binder)
chain: B1 chain with A63L, V90A
B29: E83Y (designed binder)
chain: B1 chain with E83Y, V90A
B30: S59K (designed binder)
chain: B1 chain with S59K, V90A
B31: E81P (designed binder)
chain: B1 chain with E81P, V90A
B32: E12Q (designed binder)
chain: B1 chain with E12Q, V90A
B33: E86V (designed binder)
chain: B1 chain with E86V, V90A
B34: Y101R (designed binder)
chain: B1 chain with V90A, Y101R
B35: K29C (designed binder)
chain: B1 chain with K29C, V90A
B36: V102W (designed binder)
chain: B1 chain with V90A, V102W
B37: S80H (designed binder)
chain: B1 chain with S80H, V90A
B38: E86T (designed binder)
chain: B1 chain with E86T, V90A
B39: E82A (designed binder)
chain: B1 chain with E82A, V90A
B40: E22G (designed binder)
chain: B1 chain with E22G, V90A

Target: T1, TNFR1
Assay: yeast display SC50

Row | Binder | apparent Kd (screen) [nM]
1 | B1 | 1.27
2 | B2 | 0.869
3 | B3 | 1.69
4 | B4 | 0.49
5 | B5 | 1.4
6 | B6 | 0.539
7 | B7 | 11.4
8 | B8 | 2.73
9 | B9 | 1.54
10 | B10 | 7.07
11 | B11 | 6.43
12 | B12 | 0.539
13 | B13 | 2.25
14 | B14 | 0.593
15 | B15 | 0.49
16 | B16 | 2.25
17 | B17 | 13.8
18 | B18 | 5.31
19 | B19 | 0.49
20 | B20 | 0.49

Row | Binder | apparent Kd (screen) [nM]
21 | B21 | 3
22 | B22 | 0.446
23 | B23 | 1.69
24 | B24 | 5.84
25 | B25 | 12.5
26 | B26 | 2.73
27 | B27 | 0.956
28 | B28 | 9.41
29 | B29 | 2.05
30 | B30 | 1.05
31 | B31 | 0.49
32 | B32 | 0.956
33 | B33 | 1.05
34 | B34 | 0.446
35 | B35 | 1.4
36 | B36 | 1.4
37 | B37 | 0.956
38 | B38 | 0.956
39 | B39 | 0.593
40 | B40 | 1.05
